The text below walks through data of a protein production outcome set (Wang et al. 2014).

The nature of this series: label from the status in PepcDB records.
For “MSTDDPRFAGIARLYGIEGLARLRAAHVAIVGIGGVGSWAAEAMARSGVGEISLFDMDDVCVSNSNRQLHALDTTVGRPKVEVMAERIRAINPDCVVHAVSDFVTRDTMAECITPDMDFVIDCIDSVNAKAALISWCKRRKIQMVTTGAAGGQIDPTLIQIADLNRTFNDPLASKVRSTLRRDYGFSRTPNRHYSVPCVFSTEQLRYPKPDGSICLEKKFIGDGVKLDCAGGFGAVMMVTATFGMIAATRAVDKLVAGTRRPSERAKPAAVTANQA”, the protein production entry is “failed”.
The result for “MTVLRKQAREAGVYMKVVRNTLARRAVEGTEYECLTDTFTGPSLLAFSNEHPGAAARLFKDFAKENKDFEIKAAAFEGAVTDADVLATLPTYDEAIARLMMCMKEASAGKLVRTIAAVRDQKEEAAA” reads “failed”; that for “MKMKHAFGPIILACVLFFIIILIPSKSLVSLISDKKVEDAATSLQKEKLQSVFLQQKMLENSQYLPMYGSSEFLRMDAYHPSNYFKVNPAGFTPYLIGIGGTQSLAHILNMTSTIDELEGKKVVFVLSPQWFTKTGVSQGDFTNNFSKQQAYHFIFNDKMNVEMKKQIAKRLLDYKVVQEDDILKNSLEGIVYNDTKHNIKAGLVKPLAYMHRNILDHRDLFNSIFKIEPMKEKTNVGLRSISWVDARKHAEEEGKAESTTNTFGIENPYYYKHNLKKKLKGLKNFRVNESYEESPEYDDLQIVLNIFKEKNVKPLFISVPVNGPWYDYAGFPKERREVYYKKVREQVEKAGYPVVDFSGHEYDKYFLKDTIHLGWKGWIYFDEAVQNFYNEKLEHHHHHH”, “failed”; that for “MEVNGEEERRSRREDEEKEDYYYSLLNSPCSVCNKFVQAILKCLGLESSSIPPSSSSSSPSLVEEEDSGTETVEETGFMARITAVLRRRPRPPPYSSGRPGQNN”, “not failed”.
On to “KQLLTLKIKCSNQPERQILEKQLPDSMTVQKVKGLLSRLLKVPVSELLLSYESSKMPGREIELENDLQPLQFYSVENGDCLLVR”, for which the protein production result is on record as “not failed”.
For the sequence “KEQILSSEQLARKMMLELGDKKQEHLVAIYMDTQNRIIEQRTIFIGTVRRSVAEPREILHYACKNMATSLIIIHNHPSGSPKPSESDLSFTKKIKRSCDHLGIVCLDHIIVGKNKYYSFREEADIL”, the protein production result is listed as “not failed”.
For the sequence “MASRSASQASDALSQHGCPFSVRAKAFHGGRCMHELIGDITLSILFAWLLGLAAHFFRQPLILAYLIGGFVIGPFGLGWVKSENSISVISELGLIFMLFMIGLEIDLKKIIRAGPVILVAAGGQIAGGVLLGLAFFVGIGLSLGGGHFDALYLTVACALSSTVIIVKVLYEKRELDTLPGRITLGILVLQDIFAILFLAVQPSLADLQISVLLLSIARVVALVATALALSRYVLPWLFHRIARTPELVLLGALAWCFLIGEIAERLHLSREMGALVAGVSLSTFPYALDVTAKVTTLRDFFITLFFVALGMTIPIPNGSVIGLALAIAVFTLASRLLTTFLPLYLMKQGLRASLLPALNLAQISEFSLVVIQTGVAAGHIGTQTASAASFAFVLLAVLSTFVIMRSDPITRRAIGTLTKFGFRDLGQQQSGAEAAAEAGHGAVHRIVILGFFRAASALVSEIEQHTPELLKQISVIDFNPMVYRTLTERGMHVIYGDISNVDTLLHAGVAKAEIIILSVPDSLLKGATNERLVRHVRALNPNAQIVATADLLADVEAMYQAGADYVTVTRLADARELFEVIEAADNGLLSDKRAALDARLAERREVLP”, the protein production entry is listed as “failed”.
Consider “MSDEHRFSRLRPLSLGLLAPLAVLLTGCGGPNLIERLSIGNWGFWGTVIIVLDLVALVDLLGDGTRSTTSTVVWALLIVFAPVLGVILYFIFGRE”, for which the protein production result is “failed”.
The result for “MPQIYFSAAERRPKFVMKTGLSATEKNEVIKAAYRQIFERDITRAYSLSISDLESKVKNGDISMKEFVRRLAKSPLYQKQFYQPFINSRVIELAFRHILGRGPSSREEVQKYFSIISNGGLPALVDALVDSAEYSDYFGEETVPYLRGLEHHHHHH” reads “failed”.
